Patent US20200140562A1
pKd: −log10 of the molar value.

Tests used:
[1] = target: human OX40 on cells (CHO-hOX40, 293HEK-hOX40, Jurkat-hOX40, activated primary CD4+ T cells) (human) (UniProt P43489); experiment: cell-based or functional assay
[2] = target: human OX40_Fc (R&D Systems) (human) (UniProt P43489); experiment: BLI, IgG1 on tip, hOX40-Fc 50 nM, avid
[3] = target: human OX40 on cells (CHO-hOX40, 293HEK-hOX40, Jurkat-hOX40, activated primary CD4+ T cells) (human) (UniProt P43489); experiment: flow cytometry, 293HEK-hOX40, 1.6 nM
[4] = target: cyno OX40_Fc (Acro Biosystems) (cyno); experiment: BLI, IgG1 on tip, cyno OX40-Fc 100 nM, avid
[5] = target: human OX40 on cells (CHO-hOX40, 293HEK-hOX40, Jurkat-hOX40, activated primary CD4+ T cells) (human) (UniProt P43489); experiment: flow cytometry, CHO-hOX40, 100 nM blocker, competitor OX40L-hFc-fluorescein
[6] = target: human OX40 on cells (CHO-hOX40, 293HEK-hOX40, Jurkat-hOX40, activated primary CD4+ T cells) (human) (UniProt P43489); experiment: flow cytometry, 293HEK-hOX40, 40 nM
[7] = target: human OX40 on cells (CHO-hOX40, 293HEK-hOX40, Jurkat-hOX40, activated primary CD4+ T cells) (human) (UniProt P43489); experiment: flow cytometry, 293HEK-hOX40, 200 nM
[8] = target: human OX40 on cells (CHO-hOX40, 293HEK-hOX40, Jurkat-hOX40, activated primary CD4+ T cells) (human) (UniProt P43489); experiment: flow cytometry, 293HEK-hOX40, 8 nM
[9] = target: human OX40 on cells (CHO-hOX40, 293HEK-hOX40, Jurkat-hOX40, activated primary CD4+ T cells) (human) (UniProt P43489); experiment: flow cytometry, activated CD4+ T cells, donor 2, 100 nM
[10] = target: human OX40 on cells (CHO-hOX40, 293HEK-hOX40, Jurkat-hOX40, activated primary CD4+ T cells) (human) (UniProt P43489); experiment: flow cytometry, CHO-hOX40, 100 nM

Chain of human OX40 on cells (CHO-hOX40, 293HEK-hOX40, Jurkat-hOX40, activated primary CD4+ T cells) (human) (P43489 29-277): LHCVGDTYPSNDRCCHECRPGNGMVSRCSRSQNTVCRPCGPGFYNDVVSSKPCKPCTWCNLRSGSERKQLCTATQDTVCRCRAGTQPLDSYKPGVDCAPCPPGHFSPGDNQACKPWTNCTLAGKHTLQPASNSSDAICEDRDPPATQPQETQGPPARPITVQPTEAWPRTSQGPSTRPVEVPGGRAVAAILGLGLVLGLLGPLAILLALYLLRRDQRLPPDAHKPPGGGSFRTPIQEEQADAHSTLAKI
Chain of human OX40_Fc (R&D Systems) (human) (P43489 29-216): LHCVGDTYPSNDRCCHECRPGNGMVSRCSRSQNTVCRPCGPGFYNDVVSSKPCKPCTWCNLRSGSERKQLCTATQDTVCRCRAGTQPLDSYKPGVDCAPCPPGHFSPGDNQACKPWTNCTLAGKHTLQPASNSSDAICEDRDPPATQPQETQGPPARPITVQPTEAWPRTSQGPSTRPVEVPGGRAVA

blocking of OX40L-based activation (recombinant OX40L 60 ug/ml), NFkB-luciferase in Jurkat-hOX40 [1] [nM] | pKd [2] | MFI [3] [MFI] | pKd [4] | MFI of OX40L signal on CHO-OX40 cells [5] [MFI] | MFI [6] [MFI] | MFI [7] [MFI] | MFI [8] [MFI] | MFI [9] [MFI] | CHO-OX40 binding intensity (MFI) [10] [MFI] | Substance
> 0.08 |  |  |  |  |  |  |  |  |  | pogalizumab, human IgG1 OX40 antibody
 | 9.21 | 613000 | 8.23 | 36000 | 2.76e+06 | 2.41e+06 | 2.06e+06 | 242000 | 169000 | 11D4, IgG1 OX40 antibody
